Each block holds one binder with its values, some of them ahead of it.
Tests used:
[1] = target: T1, human PD-L1 Fc Chimera (R&D Systems, cat. no. 156-B7-100) (human, UniProt Q9NZQ7 19-239, biotinylated with Sulfo-NHS-LC-Biotin in ELISA and AlphaLISA; not biotinylated in SPR); assay: SPR capture assay, control
T1 construct: bought; also called hPD-L1; biotinylated hPD-L1; not shown: Fc part of the bought Fc chimera, not described

[2] = target: T2, PD-L1 on PD-L1 expressing cells (IFNg-stimulated THP-1 cells; MDA-MB-231 cells) (UniProt Q9NZQ7 19-290, limits assumed); assay: FACS, MDA-MB-231 cells, 0.625 µg/ml; negative control (buffer) 69
T2 construct: whole, on cells
Description: Cells incubated with buffer alone were used as negative controls. The cells were incubated for 1 h at 8° C. in the dark, washed twice with 100 μl staining buffer, and resuspended in 100 μl of staining buffer containing 2.5 μg/ml of a goat-anti-human IgG-Alexa488 (Molecular Probes, cat. no. A11013) or, for cells stained with the positive control antibody, goat anti-mouse IgG-Alexa647 antibody (Life Technologies, cat. No. A21236). The cells were incubated for 1 h at 8° C. in the dark, washed twice with 100 μl staining buffer and resuspended in 300 μl of staining buffer. Data from 10,000 cells were obtained using a FACS Calibur ([…]) and the data was analyzed using Flowing software 2.5.0 (Turku University). Mean fluorescence intensity (MFI) was used as a read out of binding capacity.

T2 sequence (Q9NZQ7 19-290 limits assumed): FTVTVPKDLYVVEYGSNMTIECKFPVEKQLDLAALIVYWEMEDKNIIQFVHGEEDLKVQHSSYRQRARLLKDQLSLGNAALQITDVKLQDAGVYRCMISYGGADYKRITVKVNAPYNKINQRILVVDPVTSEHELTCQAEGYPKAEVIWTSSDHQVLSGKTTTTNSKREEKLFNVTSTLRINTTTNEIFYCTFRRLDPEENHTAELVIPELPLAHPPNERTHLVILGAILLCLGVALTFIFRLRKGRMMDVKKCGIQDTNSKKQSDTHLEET
T1 sequence (Q9NZQ7 19-239, change not shown): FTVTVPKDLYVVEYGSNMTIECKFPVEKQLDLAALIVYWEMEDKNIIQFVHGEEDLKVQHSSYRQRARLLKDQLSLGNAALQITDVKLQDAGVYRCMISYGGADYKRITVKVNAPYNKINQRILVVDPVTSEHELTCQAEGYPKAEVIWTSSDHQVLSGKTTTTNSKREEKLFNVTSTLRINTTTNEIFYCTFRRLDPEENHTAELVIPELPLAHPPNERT

binding result [1]: no binding (tested: 100 or 500 nM PD-L1)
B1: Lam (PD-1 binding monoclonal antibody with the CDR sequences of pembrolizumab) (antibody, human IgG4 S228P, kappa, V domains shown)
VH: QVQLVQSGVEVKKPGASVKVSCKASGYTFTNYYMYWVRQAPGQGLEWMGGINPSNGGTNFNEKFKNRVTLTTDSSTTTAYMELKSLQFDDTAVYYCARRDYRFDMGFDYWGQGTTVTVSS
VL: EIVLTQSPATLSLSPGERATLSCRASKGVSTSGYSYLHWYQQKPGQAPRLLIYLASYLESGVPARFSGSGSGTDFTLTISSLEPEDFAVYYCQHSRDLPLTFGGGTKVEIKR

MFI [2]: 64
B2: ipilimumab (Yervoy, Bristol-Myers Squibb) (antibody, V domains shown)
VH: QVQLVESGGGVVQPGRSLRLSCAASGFTFSSYTMHWVRQAPGKGLEWVTFISYDGNNKYYADSVKGRFTISRDNSKNTLYLQMNSLRAEDTAIYYCARTGWLGPFDYWGQGTLVTVSS
VL: not shown

MFI [2]: 161
B3: Z15170-HCLam (bispecific antibody)
heavy: not shown
light: EIVLTQSPATLSLSPGERATLSCRASKGVSTSGYSYLHWYQQKPGQAPRLLIYLASYLESGVPARFSGSGSGTDFTLTISSLEPEDFAVYYCQHSRDLPLTFGGGTKVEIKRTVAAPSVFIFPPSDEQLKSGTASVVCLLNNFYPREAKVQWKVDNALQSGNSQESVTEQDSKDSTYSLSSTLTLSKADYEKHKVYACEVTHQGLSSPVTKSFNRGEC

MFI [2]: 274
B4: HCLam-Z15170 (bispecific antibody)
heavy: not shown
light: B3 light

From patent publication US20180312565A1 (Affibody, published 2018)
